The values that follow come from patent US20230295310A1 (ABCELLERA BIOLOGICS, published 2023).

In experiment [1] the target is T1, human CD3 expressed on cells (Jurkat cells; human primary T cells) (human, UniProt P07766 23-207; P04234 22-171; P09693 23-182).
T1 construct: whole, on cells
The experiment in a line: flow cytometry, 25 nM, human primary T cells. The gist of the method:
(§1)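 Values are fold over isotype: median fluorescence intensity of each antibody relative to isotype control after a 30-minute, 4° C incubation at 25 nM with CD3-bearing cells in PBS containing 2% FBS.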
Background: In flow cytometry, cells or beads pass a laser one at a time.

Experiment [2] concerns the target T1, human CD3 expressed on cells (Jurkat …). As to the kind of experiment: flow cytometry, 25 nM, Jurkat cells. The essentials:
as §1

In experiment [3] the target is T2, cynomolgus monkey CD3 expressed on cyno primary T cells (cynomolgus monkey, UniProt Q95LI5 22-198; Q95LI8 22-171; Q95LI7 23-181).
T2 construct: whole, on cells; CD3 complex on purified cynomolgus monkey CD3 pan T cells; also called cyno CD3
The experiment in a line: flow cytometry, cyno primary T cells. The gist of the method: as §1

T1 sequence (P07766 23-207, chain 1 of 3): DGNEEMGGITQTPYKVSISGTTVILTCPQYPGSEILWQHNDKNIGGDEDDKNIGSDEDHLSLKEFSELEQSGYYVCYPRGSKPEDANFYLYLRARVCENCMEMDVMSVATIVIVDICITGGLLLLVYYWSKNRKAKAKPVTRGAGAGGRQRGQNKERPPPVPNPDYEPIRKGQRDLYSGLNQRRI
T1 sequence (P04234 22-171, chain 2 of 3): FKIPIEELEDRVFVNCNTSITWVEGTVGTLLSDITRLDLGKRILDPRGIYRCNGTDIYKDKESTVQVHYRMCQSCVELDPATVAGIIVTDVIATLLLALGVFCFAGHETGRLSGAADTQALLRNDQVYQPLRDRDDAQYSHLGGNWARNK
T1 sequence (P09693 23-182, chain 3 of 3): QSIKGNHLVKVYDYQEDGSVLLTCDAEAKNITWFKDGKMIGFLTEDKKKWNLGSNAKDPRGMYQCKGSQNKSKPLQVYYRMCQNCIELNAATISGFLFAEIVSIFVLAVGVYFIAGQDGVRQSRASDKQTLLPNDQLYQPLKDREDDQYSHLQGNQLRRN
T2 sequence (Q95LI5 22-198, chain 1 of 3): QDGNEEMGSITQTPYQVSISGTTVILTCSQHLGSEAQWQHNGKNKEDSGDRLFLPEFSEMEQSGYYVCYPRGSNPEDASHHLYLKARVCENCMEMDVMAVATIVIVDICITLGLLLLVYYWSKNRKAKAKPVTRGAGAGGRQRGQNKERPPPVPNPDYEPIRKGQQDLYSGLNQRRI
T2 sequence (Q95LI8 22-171, chain 2 of 3): as the sequence (P04234 22-171, chain 2 of 3) above, with I5V, N15K, I20V, S32T, D33N, I34N, T64A, S74N, V83L, H141R counted along it
T2 sequence (Q95LI7 23-181, chain 3 of 3): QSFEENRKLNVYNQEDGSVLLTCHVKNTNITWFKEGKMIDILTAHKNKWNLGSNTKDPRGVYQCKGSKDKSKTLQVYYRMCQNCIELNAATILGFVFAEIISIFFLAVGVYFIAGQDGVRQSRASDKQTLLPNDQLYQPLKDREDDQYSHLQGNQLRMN

B1: mAb 250 (antibody, V domains shown)
VH: QVQLVESGGGVVQPGRSLRLSCAASGFTFSTYGMHWVRQAPGKGLEWVAVLWSDGRSKYYADSVQGRFTISRDNSKNTLFLQMSSLRAEDTAVYYCAREPYYDFWSGYYTGYMDVWGKGTTVTVSS
VL: DIQMTQSPSSLSASVGDRVTITCRASQGIRNDLGWYQQKPGKAPKRLIYAASSLQGGVPSRFSGSGSGTEFTLTISSLQPEDFATYYCLQHNSYPRTFGQGTKVEIK
notes: VH/VL only
Take B1: the figures for the “Binding (FOI)” value in experiment [1] and in experiment [2] were 109 FOI and 125 FOI, respectively. In experiment [3], the binding result is given as “no binding (tested: FOI <10 (FOI >=10 = positive); 25 nM)”.

B2: mAb 248 (antibody, V domains shown)
VH: QVKLVESGGGVVQPGRSLRLSCVASGFTFSGYGMHWVRQAPGKGLEWVAIIYYDGKNKYYVDSVKGRFTISRDNSKNTLYLQLNSLRAEDTAVYYCVRGPGYNWFDHWGQGTLVTVAS
VL: EIVLTQSPDFQSVTPKEKVTITCRASQSIGSSLHWYQQKPDQSPKLLIKYASQSFSGVPSRFSGSGSGTDFTLTINSLEAEDAATYYCHQSSSLPYTFGQGTKLEIK
notes: VH/VL only
In the case of B2, the entries for the “Binding (FOI)” value in experiment [1] and in experiment [2] were 203 FOI and 174 FOI, respectively. The binding result in experiment [3] was “no binding (tested: FOI <10 (FOI >=10 = positive); 25 nM)”.

B3: mAb 258 (antibody, V domains shown)
VH: EVQLLESGGGLVQPGGSLRLSCAASGFTFSNYAMNWVRQAPGKGLEWVSVISNSGGTRLYVDSVKGRFTISRDNSKNTLYLQMSSLRAADTAVYYCAKDAAAALYYYYFYYMDVWGKGTTVTVSS
VL: EIVLTQSPDFQSVTPKEKVTITCRASQSIGSSLHWYQQKPDQSPKLLIKYASQSFSGVPSRFSGSGSGTDFTLTINSLEAEDAATYYCHQSSSLPYTFGQGTKLEIK
notes: VH/VL only
B3: the “Binding (FOI)” value was 113 FOI in experiment [1] and 147 FOI in experiment [2]. Also, the binding result in experiment [3] is on record as “no binding (tested: FOI <10 (FOI >=10 = positive); 25 nM)”.

B4: mAb 256 (antibody, V domains shown)
VH: QVQLQQSGPGLVKPSQTLSLTCAISGDSVSSNYASWNWIRQSPSRGLEWLGRTYYRSKWYNDFAVSVKSRVTINADTSKNQFSLHLSSVTPEDTAIYFCAREANGRGYFYYMDVWGKGTTVTVSS
VL: EIVLTQSPDFQSVTPKEKVTITCRASQSIGSSLHWYQQKPVQSPKLLIKYASQSISGVPSRFSGSGSGTVFTLTINSLEAEDAAAYFCHQSSGSPHTFGGGTKVEIK
notes: VH/VL only
As for B4, the results for the “Binding (FOI)” value in experiment [1] and in experiment [2] were 73 FOI and 61.5 FOI, respectively. In experiment [3], the binding result was “no binding (tested: FOI <10 (FOI >=10 = positive); 25 nM)”.

B5: mAb 257 (antibody, V domains shown)
VH: QVQLQQSGPGLVKPSQTLSLTCAISGDSVSSNYASWNWIRQSPSRGLEWLGRTYYRSKWYNDFAVSVRSRVTINADTSKNQFSLHLSSVTPEDTAIYFCAREANGRGYFYYMDVWGKGTTVTVSS
VL: EIVLTQSPDFQSVTPKEKVTITCRASQSIGSSLHWYQQKPDQSPKLLIKYASQSISGVPSRFSGSGSGTVFTLTINSLEAEDAAAYFCHQSSGSPHTFGGGTKVEIK
notes: VH/VL only; the printed VH holds a letter U
On to B5, for which the “Binding (FOI)” value in experiment [1] is 77.7 FOI; in experiment [2], 62.3 FOI. For the same molecule, the binding result in experiment [3] is listed as “no binding (tested: FOI <10 (FOI >=10 = positive); 25 nM)”.

B6: mAb 266 (antibody, V domains shown)
VH: QVQLQQSGPGLVKPSQTLSLTCAISGDSVSSNYASWNWIRQSPSRGLEWLGRTYYRSKWYIDFAVSVKSRLTINADTSKNQFSLHLRSVTPEDTAIYFCAREANGRGYFYYMDVWGKGTTVTVSS
VL: EIVLTQSPDFQSVTPKEKVTITCRASQSIGSSLHWYQQKPDQSPKLLIKYASQSISGVPSRFSGSGSGTVFTLTINSLEAEDAAAYFCHQSSGSPHTFGGGTKVEIK
notes: VH/VL only
With B6, the results for the “Binding (FOI)” value in experiment [1] and in experiment [2] were 71.9 FOI and 85 FOI, respectively. Moreover, the binding result in experiment [3] is listed as “no binding (tested: FOI <10 (FOI >=10 = positive); 25 nM)”.

B7: mAb 255 (antibody, V domains shown)
VH: QVQVQQSGPGLVKPSQTLSLTCAISGDSVSSKYASWNWIRQSPSRGLEWLGRTYYRSKWYNDFAVSVKSRITINADTSKNQFSLHLSSVTPEDTAIYFCAREANGRGYFYYMDVWGKGTTVTVSS
VL: EIVLTQSPDFQSVTPKEKVTITCRASQSIGSSLHWYQQKPDQSPKLLIKYASQSISGVPSRFSGSGSGTVFTLTINSLEAEDAAAYFCHQSSGSPHTFGGGTKVEIK
notes: VH/VL only
Regarding B7, the “Binding (FOI)” value in experiment [1] stood at 198 FOI; in experiment [2], 162 FOI. In experiment [3], the binding result is reported as “no binding (tested: FOI <10 (FOI >=10 = positive); 25 nM)”.

B8: mAb 267 (antibody, V domains shown)
VH: QVQLQQSGPGLVKPSQTLSLTCAISGDSISSNYASWNWIRQSPSRGLEWLGRTYYRSKWYNDFAVSVKSRIIINPDTSRNQFSLHLNSVTPEDTAIYYCAREANGRGYFYYMDVWGKGTTVTVSS
VL: EIVLTQSPDFQSVTPKEKVTITCRASQSIGSSLHWYQQKPDQSPKLLIKYASQSISGVPSRFSGRGSGTDFTLTINSLEAEDAAAYFCHQSSGSPHTFGGGTKVEIK
notes: VH/VL only
Consider B8, for which the “Binding (FOI)” value was found to be 88.8 FOI in experiment [1] and 61.3 FOI in experiment [2]. In experiment [3], the binding result was “no binding (tested: FOI <10 (FOI >=10 = positive); 25 nM)”.

B9: mAb 251 (antibody, V domains shown)
VH: EVQILESGGGLVQPGGSLRLSCVASGFTFRSYVMSWVRRAPGRGLEWVSGISASGGNTYYADSVKGRFTISRDNSKNTLFLQMNGLRAEDTAVYYCAKLFSYYYYFMDVWGKGTTVTVSS
VL: SYELTQPLSVSVALGQTARITCGGNNIGSKDVHWYQQKPGQAPVLVIYRDSNRPSGIPERFSGSNSGNTATLTISGAQAGDEADYYCQVWDRRTAVFGGGTQLTAL
notes: VH/VL only
As to B9, the “Binding (FOI)” value in experiment [1] worked out at 297 FOI; in experiment [2], 215 FOI. In addition, in experiment [3], the binding result is given as “no binding (tested: FOI <10 (FOI >=10 = positive); 25 nM)”.

B10: mAb 264 (antibody, V domains shown)
VH: EVQLLESGGGLVQPGGSLRLSCVASGFTFRSSSMTWVRQAPGKGLEWVSGIRGSGGRTYDAESVKGRFTISRDNSKNTLYLQMNSLRAEDTAEYYCAKLYDYYNDYMDVWGKGTTVTVSS
VL: SYELTQPLSVSVALGQTARITCGGNNIGSKNVHWYQQKPGQAPVLVIYRDSNRPSGIPERFSGSNSGNTATLTISRAQAGDEADYYCQVWDSSTAVFGGGTQLTAL
notes: VH/VL only
As for B10, the “Binding (FOI)” value in experiment [1] was found to be 220 FOI; in experiment [2] it was 174 FOI. Also, the binding result in experiment [3] is given as “no binding (tested: FOI <10 (FOI >=10 = positive); 25 nM)”.

B11: mAb 261 (antibody, V domains shown)
VH: EVQLLESGGGFMQPGGSLRLSCAVSGFTFRTSSMAWVRQAPGKGLEWVSGIRGSGGRTYDAESVKGRFTISRDISKNTLYLQMNNLRAEDTAEYYCAKLYDYYNDFMDVWGKGTTVIVSA
VL: SYELTQPLSVSVALGQTARITCGGNNIGSKNVHWYQQKPGQAPVLVIYRDSNRPSGIPERFSGSNSGNTATLTISRAQAGDEADYYCQVWDSSTAVFGGGTQLTAL
notes: VH/VL only
B11: the “Binding (FOI)” value was determined as 229 FOI in experiment [1] and 188 FOI in experiment [2]. In addition, in experiment [3], the binding result is reported as “no binding (tested: FOI <10 (FOI >=10 = positive); 25 nM)”.

B12: mAb 259 (antibody, V domains shown)
VH: EVLLLESGGGLVQPGGSLRLSCAASGFTFRSSSMTWVRQAPGKGLEWVSGIRGSGGRTYDAESVKGRFTISRDISKNTLYLQMNSVRAEDTAEYYCAKLYDYYNDYMDVWGKGTTVTVSS
VL: SYELTQPLSVSVALGQTARITCGGNNIGSKNVHWYQQKPGQAPVLVIYRDSNRPSGIPERFSGSNSGNTATLTISRAQAGDEADYYCQVWDSSTAVFGGGTQLTAL
notes: VH/VL only
Regarding B12, the “Binding (FOI)” value in experiment [1] stood at 214 FOI; in experiment [2], 169 FOI. Further, the binding result in experiment [3] is listed as “no binding (tested: FOI <10 (FOI >=10 = positive); 25 nM)”.

B13: mAb 260 (antibody, V domains shown)
VH: EVQLLESGGGLVQPGGSLRLSCVASGFTFRSSSMAWVRQAPGKGLEWVSGIRGSGGRTYDAESVKGRFIISRDTSKNTLYLQMNSLRGEDTAEYFCAKLYDYYNDYMDVWGKGTTVTVSS
VL: SYELTQPLSVSVALGQTARITCGGNNIGSKNVHWYQQKPGQAPVLVIYRDSNRPSGIPERFSGSNSGNTATLTISRAQAGDEADYYCQVWDSSTAVFGGGTQLTAL
notes: VH/VL only
B13: the figures for the “Binding (FOI)” value in experiment [1] and in experiment [2] were 219 FOI and 178 FOI, respectively. Besides, the binding result in experiment [3] is reported as “no binding (tested: FOI <10 (FOI >=10 = positive); 25 nM)”.

B14: mAb 252 (antibody, V domains shown)
VH: EVQILESGGGLVQPGGSLRLSCVASGFTFRSYVMSWVRRAPGRGLEWVSGISTSGGNTYYADSVKGRFTISRDNSKNTLFLQMNGLRAEDTAVYYCAKLFSYYYYFMDVWGKGTTVTVSS
VL: SYELTQPLSVSVALGQTARITCGGNNIGSKDVHWYQQKPGQAPVLVIYRDSNRPSGIPERFSGSNSGNTATLTISGAQAGDEADYYCQVWDRRTAVFGGGTQLTAL
notes: VH/VL only
Take B14: the figures for the “Binding (FOI)” value in experiment [1] and in experiment [2] were 270 FOI and 184 FOI, respectively. Also, the binding result in experiment [3] is listed as “no binding (tested: FOI <10 (FOI >=10 = positive); 25 nM)”.

B15: mAb 262 (antibody, V domains shown)
VH: EVRLLESGGGLVQPGGSLRLSCAASGFTFRSSSMAWVRQDPGKGLEWVTGIRGSGGRTYDADSVKGRFTISRDNSKNTLYLQMNSLRAEDTAEYYCAKLYDYYNDYMDVWGKGTTVTVSS
VL: SYELTQPLSVSVALGQTARITCGGNNIGSKNVHWYQQKPGQAPVLVIYRDSNRPSGIPERFSGSNSGNTATLTISRAQAGDEADYYCQVWDSSTAVFGGGTQLTAL
notes: VH/VL only
In the case of B15, the “Binding (FOI)” value came to 219 FOI in experiment [1] and 165 FOI in experiment [2]. For the same molecule, in experiment [3], the binding result is recorded as “no binding (tested: FOI <10 (FOI >=10 = positive); 25 nM)”.
